Results on six substances are retold here after the supplement of paper PMC5998384.

Series [1] has as its system HeLa Kyoto. The series can be described thus: solubility in G1/S (NP-40 vs SDS abundance) (log2 ratio); higher = more soluble. The note with it: cell cycle stage: G1/S.
Series [2] relates to HeLa Kyoto. The series can be described thus: thermal stability score vs G1/S (z-score of summed log2 fold changes over temperatures); higher = more thermally stable than in G1/S.
The test system of series [3] is HeLa Kyoto. In words: solubility change mitosis vs G1/S (difference of NP-40 vs SDS log2 ratios) (log2 ratio difference); higher = more soluble in mitosis.
The test system of series [4] is HeLa Kyoto. In words: melting temperature (median over replicates), in situ; higher = more thermally stable.
The mark [5] stands for this setting: cell cycle stage: early G1 (4.5 h after nocodazole release).
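Wherever melting temperature (median over replicates), in situ is given: HeLa Kyoto cells synchronized by double thymidine or nocodazole block, proteins quantified by TMT10plex mass spectrometry, three independent biological replicates.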
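Wherever solubility change mitosis vs G1/S (difference of NP-40 vs SDS log2 ratios) is given: synchronized HeLa Kyoto cells (double thymidine block for G1/S, nocodazole release for mitosis), protein amounts in NP-40 versus SDS lysates quantified by mass spectrometry, three biological replicates.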
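Wherever solubility in G1/S (NP-40 vs SDS abundance) is given: HeLa Kyoto cells arrested at G1/S by double thymidine block, proteins quantified by TMT10plex mass spectrometry in mild NP-40 versus SDS extracts, three biological replicates.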
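Wherever thermal stability score vs G1/S (z-score of summed log2 fold changes over temperatures) is given: synchronized HeLa Kyoto cells, proteins quantified by TMT10plex mass spectrometry, three biological replicates, mitosis taken 0.5 h after nocodazole release, G1/S directly after double thymidine block.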

On to “MSGRGAGGFPLPPLSPGGGAVAAALGAPPPPAGPGMLPGPALRGPGPAGGVGGPGAAAFRPMGPAGPAAQYQRPGMSPGNRMPMAGLQVGPPAGSPFGAAAPLRPGMPPTMMDPFRKRLLVPQAQPPMPAQRRGLKRRKMADKVLPQRIRELVPESQAYMDLLAFERKLDQTIARKRMEIQEAIKKPLTQKRKLRIYISNTFSPSKAEGDSAGTAGTPGGTPAGDKVASWELRVEGKLLDDPSKQKRKFSSFFKSLVIELDKELYGPDNHLVEWHRMPTTQETDGFQVKRPGDLNVKCTLLLMLDHQPPQYKLDPRLARLLGVHTQTRAAIMQALWLYIKHNQLQDGHEREYINCNRYFRQIFSCGRLRFSEIPMKLAGLLQHPDPIVINHVISVDPNDQKKTACYDIDVEVDDPLKAQMSNFLASTTNQQEIASLDVKIHETIESINQLKTQRDFMLSFSTDPQDFIQEWLRSQRRDLKIITDVIGNPEEERRAAFYHQPWAQEAVGRHIFAKVQQRRQELEQVLGIRLT [SMARCD2]”, for which the “solubility in G1/S (log2)” value in the series on HeLa Kyoto [1] turned out to be 0.445. The thermal stability score in the series on HeLa Kyoto [2] (setting [5]) came to 0.352; in the series on HeLa Kyoto [2] (cell cycle stage: mitosis), 1.15. Moreover, the “solubility change mitosis (log2)” value with HeLa Kyoto [3] amounted to 0.00253. Besides, the melting temperature with HeLa Kyoto [4] (cell cycle stage: G1/S) is 48 °C; with HeLa Kyoto [4] (cell cycle stage: mitosis) it was 49.2 °C.
Regarding HUWE1, the “solubility in G1/S (log2)” value with HeLa Kyoto [1] is -0.226. For the same substance, the thermal stability score in the series on HeLa Kyoto [2] (setting [5]) came to 0.946; in the series with HeLa Kyoto [2] (cell cycle stage: mitosis), 0.312. Also, the “solubility change mitosis (log2)” value in the series on HeLa Kyoto [3] was -0.136. In addition, the melting temperature was 52 °C in the series on HeLa Kyoto [4] (cell cycle stage: G1/S) and 51.4 °C with HeLa Kyoto [4] (cell cycle stage: mitosis).
With “MVLADLGRKITSALRSLSNATIINEEVLNAMLKEVCTALLEADVNIKLVKQLRENVKSAIDLEEMASGLNKRKMIQHAVFKELVKLVDPGVKAWTPTKGKQNVIMFVGLQGSGKTTTCSKLAYYYQRKGWKTCLICADTFRAGAFDQLKQNATKARIPFYGSYTEMDPVIIASEGVEKFKNENFEIIIVDTSGRHKQEDSLFEEMLQVANAIQPDNIVYVMDASIGQACEAQAKAFKDKVDVASVIVTKLDGHAKGGGALSAVAATKSPIIFIGTGEHIDDFEPFKTQPFISKLLGMGDIEGLIDKVNELKLDDNEALIEKLKHGQFTLRDMYEQFQNIMKMGPFSQILGMIPGFGTDFMSKGNEQESMARLKKLMTIMDSMNDQELDSTDGAKVFSKQPGRIQRVARGSGVSTRDVQELLTQYTKFAQMVKKMGGIKGLFKGGDMSKNVSQSQMAKLNQQMAKMMDPRVLHHMGGMAGLQSMMRQFQQGAAGNMKGMMGFNNM [SRP54]”, the “solubility in G1/S (log2)” value with HeLa Kyoto [1] was determined as 0.193. The thermal stability score with HeLa Kyoto [2] (setting [5]) is 0.232; in the series with HeLa Kyoto [2] (cell cycle stage: mitosis) it was 0.227. Moreover, the “solubility change mitosis (log2)” value with HeLa Kyoto [3] came out at 0.157. Besides, the figures for the melting temperature in the series with HeLa Kyoto [4] (cell cycle stage: G1/S) and with HeLa Kyoto [4] (cell cycle stage: mitosis) were 52 °C and 50.4 °C, respectively.
Consider “MADEIAKAQVARPGGDTIFGKIIRKEIPAKIIFEDDRCLAFHDISPQAPTHFLVIPKKHISQISVAEDDDESLLGHLMIVGKKCAADLGLNKGYRMVVNEGSDGGQSVYHVHLHVLGGRQMHWPPG [HINT1]”, for which the “solubility in G1/S (log2)” value in the series with HeLa Kyoto [1] was found to be 0.25. The thermal stability score in the series with HeLa Kyoto [2] (setting [5]) was -5.39; in the series on HeLa Kyoto [2] (cell cycle stage: mitosis), -4.12. The “solubility change mitosis (log2)” value with HeLa Kyoto [3] stood at 0.17. The melting temperature with HeLa Kyoto [4] (cell cycle stage: G1/S) was 56.4 °C; in the series with HeLa Kyoto [4] (cell cycle stage: mitosis), 56 °C.
“MAAAAAAAVAGVGRGGGGAEPRQERSRARGWAGVERSEGRRMEPGEELEEEGSPGGREDGFTAEHLAAEAMAADMDPWLVFDARTTPATELDAWLAKYPPSQVTRYGDPGSPNSEPVGWIAVYGQGYSPNSGDVQGLQAAWEALQTSGRPITPGTLRQLAITHHVLSGKWLMHLAPGFKLDHAWAGIARAVVEGQLQVAKVSPRAKEGGRQVICVYTDDFTDRLGVLEADSAIRAAGIKCLLTYKPDVYTYLGIYRANRWHLCPTLYESRFQLGGSARGSRVLDRANNVELT [C11ORF68]”: in the series with HeLa Kyoto [1], the “solubility in G1/S (log2)” value came to 0.585. The thermal stability score in the series with HeLa Kyoto [2] (setting [5]) was 0.634; in the series on HeLa Kyoto [2] (cell cycle stage: mitosis) it was -0.663. Also, the “solubility change mitosis (log2)” value with HeLa Kyoto [3] was -0.0653. In addition, the melting temperature in the series with HeLa Kyoto [4] (cell cycle stage: G1/S) was 51.6 °C; in the series on HeLa Kyoto [4] (cell cycle stage: mitosis), 51.9 °C.
In the case of ATP13A1, the “solubility in G1/S (log2)” value in the series on HeLa Kyoto [1] was -0.281. In addition, the thermal stability score is -0.031 in the series on HeLa Kyoto [2] (setting [5]) and -0.441 with HeLa Kyoto [2] (cell cycle stage: mitosis). Moreover, in the series on HeLa Kyoto [3], the “solubility change mitosis (log2)” value was -0.00617. The values for the melting temperature with HeLa Kyoto [4] (cell cycle stage: G1/S) and in the series on HeLa Kyoto [4] (cell cycle stage: mitosis) were 53.1 °C and 52.9 °C, respectively.
